In the first assay the target is T1, Proteinase-Activated Receptor-2 (human, on human keratinocytes) (human, UniProt P55085 37-397).
T1 sequence (looked up): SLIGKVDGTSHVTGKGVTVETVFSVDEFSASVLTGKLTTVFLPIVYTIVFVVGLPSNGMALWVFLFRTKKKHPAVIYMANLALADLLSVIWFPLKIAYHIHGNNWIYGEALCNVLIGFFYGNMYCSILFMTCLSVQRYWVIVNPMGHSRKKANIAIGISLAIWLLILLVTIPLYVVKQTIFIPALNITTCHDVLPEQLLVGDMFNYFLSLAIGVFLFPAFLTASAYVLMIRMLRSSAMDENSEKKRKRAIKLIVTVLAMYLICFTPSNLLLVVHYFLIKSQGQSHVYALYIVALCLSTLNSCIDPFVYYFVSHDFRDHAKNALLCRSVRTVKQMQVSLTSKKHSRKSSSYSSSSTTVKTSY
As to the kind of experiment: cell-based or functional assay.
On to Ac-FFWDHV-NH2 [Ac-L-Phe-L-Phe-L-Trp-L-Asp-L-His-L-Val-NH2], for which the “Inhibition PAR-2 activity (calcium fluorescence, human keratinocytes, peptide at 1 mg/mL)” value is 14.8% and the “PAR-2 activity (calcium fluorescence, human keratinocytes, peptide at 1 mg/mL)” value turned out to be 85.2%.

On to Ac-FFRDIV-NH2 [Ac-L-Phe-L-Phe-L-Arg-L-Asp-L-Ile-L-Val-NH2], for which the “Inhibition PAR-2 activity (calcium fluorescence, human keratinocytes, peptide at 1 mg/mL)” value came to 39% and the “PAR-2 activity (calcium fluorescence, human keratinocytes, peptide at 1 mg/mL)” value is 61%.

Regarding Ac-SMWFHV-NH2 [Ac-L-Ser-L-Met-L-Trp-L-Phe-L-His-L-Val-NH2], the “Inhibition PAR-2 activity (calcium fluorescence, human keratinocytes, peptide at 1 mg/mL)” value amounted to 13.5% and the “PAR-2 activity (calcium fluorescence, human keratinocytes, peptide at 1 mg/mL)” value was 86.5%.

Turning to Ac-FMWDIV-NH2 [Ac-L-Phe-L-Met-L-Trp-L-Asp-L-Ile-L-Val-NH2], the “Inhibition PAR-2 activity (calcium fluorescence, human keratinocytes, peptide at 1 mg/mL)” value came out at 86.1% and the “PAR-2 activity (calcium fluorescence, human keratinocytes, peptide at 1 mg/mL)” value was 13.9%.

In the case of Ac-FFRFHV-NH2 [Ac-L-Phe-L-Phe-L-Arg-L-Phe-L-His-L-Val-NH2], the “Inhibition PAR-2 activity (calcium fluorescence, human keratinocytes, peptide at 1 mg/mL)” value turned out to be 23.4% and the “PAR-2 activity (calcium fluorescence, human keratinocytes, peptide at 1 mg/mL)” value is 76.6%.

Regarding Ac-FFWFIS-NH2 [Ac-L-Phe-L-Phe-L-Trp-L-Phe-L-Ile-L-Ser-NH2], the “Inhibition PAR-2 activity (calcium fluorescence, human keratinocytes, peptide at 1 mg/mL)” value is 66.3% and the “PAR-2 activity (calcium fluorescence, human keratinocytes, peptide at 1 mg/mL)” value came to 33.7%.

As to Ac-FFQFHV-NH2 [Ac-L-Phe-L-Phe-L-Gln-L-Phe-L-His-L-Val-NH2], the “Inhibition PAR-2 activity (calcium fluorescence, human keratinocytes, peptide at 1 mg/mL)” value was 19.9% and the “PAR-2 activity (calcium fluorescence, human keratinocytes, peptide at 1 mg/mL)” value was 80.1%.

Take Ac-FFWFIV-NH2 [Ac-L-Phe-L-Phe-L-Trp-L-Phe-L-Ile-L-Val-NH2]: the “Inhibition PAR-2 activity (calcium fluorescence, human keratinocytes, peptide at 1 mg/mL)” value came out at 13.9% and the “PAR-2 activity (calcium fluorescence, human keratinocytes, peptide at 1 mg/mL)” value stood at 86.1%.

Consider Ac-FMQFIV-NH2 [Ac-L-Phe-L-Met-L-Gln-L-Phe-L-Ile-L-Val-NH2], for which the “Inhibition PAR-2 activity (calcium fluorescence, human keratinocytes, peptide at 1 mg/mL)” value is 28.6% and the “PAR-2 activity (calcium fluorescence, human keratinocytes, peptide at 1 mg/mL)” value was 71.4%.

Consider Ac-FMQFHV-NH2 [Ac-L-Phe-L-Met-L-Gln-L-Phe-L-His-L-Val-NH2], for which the “Inhibition PAR-2 activity (calcium fluorescence, human keratinocytes, peptide at 1 mg/mL)” value worked out at 22.6% and the “PAR-2 activity (calcium fluorescence, human keratinocytes, peptide at 1 mg/mL)” value came out at 77.5%.

On to Ac-SMQFHV-NH2 [Ac-L-Ser-L-Met-L-Gln-L-Phe-L-His-L-Val-NH2], for which the “Inhibition PAR-2 activity (calcium fluorescence, human keratinocytes, peptide at 1 mg/mL)” value is 15.1% and the “PAR-2 activity (calcium fluorescence, human keratinocytes, peptide at 1 mg/mL)” value stood at 84.9%.

Take Ac-FFQDIV-NH2 [Ac-L-Phe-L-Phe-L-Gln-L-Asp-L-Ile-L-Val-NH2]: the “Inhibition PAR-2 activity (calcium fluorescence, human keratinocytes, peptide at 1 mg/mL)” value turned out to be 35.9% and the “PAR-2 activity (calcium fluorescence, human keratinocytes, peptide at 1 mg/mL)” value turned out to be 64.1%.

On to Ac-SFRFIV-NH2 [Ac-L-Ser-L-Phe-L-Arg-L-Phe-L-Ile-L-Val-NH2], for which the “Inhibition PAR-2 activity (calcium fluorescence, human keratinocytes, peptide at 1 mg/mL)” value is 58.9% and the “PAR-2 activity (calcium fluorescence, human keratinocytes, peptide at 1 mg/mL)” value was 41.1%.

For Ac-FFQFHS-NH2 [Ac-L-Phe-L-Phe-L-Gln-L-Phe-L-His-L-Ser-NH2], the “Inhibition PAR-2 activity (calcium fluorescence, human keratinocytes, peptide at 1 mg/mL)” value was 37.4% and the “PAR-2 activity (calcium fluorescence, human keratinocytes, peptide at 1 mg/mL)” value came out at 62.6%.

Ac-SMRFIV-NH2 [Ac-L-Ser-L-Met-L-Arg-L-Phe-L-Ile-L-Val-NH2]: the “Inhibition PAR-2 activity (calcium fluorescence, human keratinocytes, peptide at 1 mg/mL)” value worked out at 75.2% and the “PAR-2 activity (calcium fluorescence, human keratinocytes, peptide at 1 mg/mL)” value is 24.8%.

In the case of Ac-FMRFIV-NH2 [Ac-L-Phe-L-Met-L-Arg-L-Phe-L-Ile-L-Val-NH2], the “Inhibition PAR-2 activity (calcium fluorescence, human keratinocytes, peptide at 1 mg/mL)” value turned out to be 40.9% and the “PAR-2 activity (calcium fluorescence, human keratinocytes, peptide at 1 mg/mL)” value came to 59.1%.

As for Ac-FMRFHV-NH2 [Ac-L-Phe-L-Met-L-Arg-L-Phe-L-His-L-Val-NH2], the “Inhibition PAR-2 activity (calcium fluorescence, human keratinocytes, peptide at 1 mg/mL)” value came to 40% and the “PAR-2 activity (calcium fluorescence, human keratinocytes, peptide at 1 mg/mL)” value worked out at 60%.

For Ac-FMWFHV-NH2 [Ac-L-Phe-L-Met-L-Trp-L-Phe-L-His-L-Val-NH2], the “Inhibition PAR-2 activity (calcium fluorescence, human keratinocytes, peptide at 1 mg/mL)” value is 76.5% and the “PAR-2 activity (calcium fluorescence, human keratinocytes, peptide at 1 mg/mL)” value stood at 23.5%.

Consider Ac-FFRFIV-NH2 [Ac-L-Phe-L-Phe-L-Arg-L-Phe-L-Ile-L-Val-NH2], for which the “Inhibition PAR-2 activity (calcium fluorescence, human keratinocytes, peptide at 1 mg/mL)” value was 53.7% and the “PAR-2 activity (calcium fluorescence, human keratinocytes, peptide at 1 mg/mL)” value was 46.3%.

For Ac-SFQFHS-NH2 [Ac-L-Ser-L-Phe-L-Gln-L-Phe-L-His-L-Ser-NH2], the “Inhibition PAR-2 activity (calcium fluorescence, human keratinocytes, peptide at 1 mg/mL)” value came to 9.9% and the “PAR-2 activity (calcium fluorescence, human keratinocytes, peptide at 1 mg/mL)” value turned out to be 90.1%.

Consider Ac-FMQDIV-NH2 [Ac-L-Phe-L-Met-L-Gln-L-Asp-L-Ile-L-Val-NH2], for which the “Inhibition PAR-2 activity (calcium fluorescence, human keratinocytes, peptide at 1 mg/mL)” value turned out to be 9.7% and the “PAR-2 activity (calcium fluorescence, human keratinocytes, peptide at 1 mg/mL)” value worked out at 90.3%.

With Ac-SMQFIV-NH2 [Ac-L-Ser-L-Met-L-Gln-L-Phe-L-Ile-L-Val-NH2], the “Inhibition PAR-2 activity (calcium fluorescence, human keratinocytes, peptide at 1 mg/mL)” value amounted to 23.4% and the “PAR-2 activity (calcium fluorescence, human keratinocytes, peptide at 1 mg/mL)” value came to 76.7%.

As to Ac-FFQFIV-NH2 [Ac-L-Phe-L-Phe-L-Gln-L-Phe-L-Ile-L-Val-NH2], the “Inhibition PAR-2 activity (calcium fluorescence, human keratinocytes, peptide at 1 mg/mL)” value came out at 24.1% and the “PAR-2 activity (calcium fluorescence, human keratinocytes, peptide at 1 mg/mL)” value was found to be 75.9%.

For Ac-SFWFHV-NH2 [Ac-L-Ser-L-Phe-L-Trp-L-Phe-L-His-L-Val-NH2], the “Inhibition PAR-2 activity (calcium fluorescence, human keratinocytes, peptide at 1 mg/mL)” value came to 58.3% and the “PAR-2 activity (calcium fluorescence, human keratinocytes, peptide at 1 mg/mL)” value stood at 41.7%.

For the molecule Ac-FFRDHV-NH2 [Ac-L-Phe-L-Phe-L-Arg-L-Asp-L-His-L-Val-NH2], the “Inhibition PAR-2 activity (calcium fluorescence, human keratinocytes, peptide at 1 mg/mL)” value turned out to be 60.3% and the “PAR-2 activity (calcium fluorescence, human keratinocytes, peptide at 1 mg/mL)” value was found to be 39.7%.

With Ac-SMWFIV-NH2 [Ac-L-Ser-L-Met-L-Trp-L-Phe-L-Ile-L-Val-NH2], the “Inhibition PAR-2 activity (calcium fluorescence, human keratinocytes, peptide at 1 mg/mL)” value was determined as 43.3% and the “PAR-2 activity (calcium fluorescence, human keratinocytes, peptide at 1 mg/mL)” value stood at 56.7%.

As for Ac-SFQFIV-NH2 [Ac-L-Ser-L-Phe-L-Gln-L-Phe-L-Ile-L-Val-NH2], the “Inhibition PAR-2 activity (calcium fluorescence, human keratinocytes, peptide at 1 mg/mL)” value came to 26.2% and the “PAR-2 activity (calcium fluorescence, human keratinocytes, peptide at 1 mg/mL)” value stood at 73.8%.

Consider Ac-SFWFIS-NH2 [Ac-L-Ser-L-Phe-L-Trp-L-Phe-L-Ile-L-Ser-NH2], for which the “Inhibition PAR-2 activity (calcium fluorescence, human keratinocytes, peptide at 1 mg/mL)” value was 39.2% and the “PAR-2 activity (calcium fluorescence, human keratinocytes, peptide at 1 mg/mL)” value is 60.8%.

For the molecule Ac-FMWFIV-NH2 [Ac-L-Phe-L-Met-L-Trp-L-Phe-L-Ile-L-Val-NH2], the “Inhibition PAR-2 activity (calcium fluorescence, human keratinocytes, peptide at 1 mg/mL)” value was 20.7% and the “PAR-2 activity (calcium fluorescence, human keratinocytes, peptide at 1 mg/mL)” value is 79.3%.

Turning to Ac-FFWFHV-NH2 [Ac-L-Phe-L-Phe-L-Trp-L-Phe-L-His-L-Val-NH2], the “Inhibition PAR-2 activity (calcium fluorescence, human keratinocytes, peptide at 1 mg/mL)” value is 67.8% and the “PAR-2 activity (calcium fluorescence, human keratinocytes, peptide at 1 mg/mL)” value stood at 32.2%.

In the case of Ac-FFWDIV-NH2 [Ac-L-Phe-L-Phe-L-Trp-L-Asp-L-Ile-L-Val-NH2], the “Inhibition PAR-2 activity (calcium fluorescence, human keratinocytes, peptide at 1 mg/mL)” value was found to be 67.4% and the “PAR-2 activity (calcium fluorescence, human keratinocytes, peptide at 1 mg/mL)” value was found to be 32.6%.

Regarding Ac-FMQFHS-NH2 [Ac-L-Phe-L-Met-L-Gln-L-Phe-L-His-L-Ser-NH2], the “Inhibition PAR-2 activity (calcium fluorescence, human keratinocytes, peptide at 1 mg/mL)” value turned out to be 23% and the “PAR-2 activity (calcium fluorescence, human keratinocytes, peptide at 1 mg/mL)” value was 77%.

In another assay the target is T2, Proteinase-Activated Receptor-2 (rat, on rat DRG neurons) (rat, UniProt Q63645 37-397).
T2 sequence (looked up): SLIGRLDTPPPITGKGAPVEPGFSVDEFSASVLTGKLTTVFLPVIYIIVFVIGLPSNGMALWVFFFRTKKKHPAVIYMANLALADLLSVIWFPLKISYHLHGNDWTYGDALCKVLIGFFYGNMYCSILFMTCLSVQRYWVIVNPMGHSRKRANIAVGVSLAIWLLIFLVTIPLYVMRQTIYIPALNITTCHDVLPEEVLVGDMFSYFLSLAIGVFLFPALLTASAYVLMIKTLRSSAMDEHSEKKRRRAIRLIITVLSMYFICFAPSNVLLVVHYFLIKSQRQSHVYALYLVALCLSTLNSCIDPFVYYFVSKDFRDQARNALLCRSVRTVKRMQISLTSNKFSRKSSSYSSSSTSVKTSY
As to the kind of experiment: cell-based or functional assay.
Regarding Ac-FMWFHV-NH2 [Ac-L-Phe-L-Met-L-Trp-L-Phe-L-His-L-Val-NH2], the “% CGRP (release from rat DRG neurons after PAR-2 agonist I and capsaicin; peptide at 25 µg/mL)” value was 70.1%; the “% CGRP (release from rat DRG neurons after PAR-2 agonist I and capsaicin; peptide at 0.5 mg/mL)” value worked out at 20.2%.

As for Ac-FFWFHV-NH2 [Ac-L-Phe-L-Phe-L-Trp-L-Phe-L-His-L-Val-NH2], the “% CGRP (release from rat DRG neurons after PAR-2 agonist I and capsaicin; peptide at 25 µg/mL)” value is 58.9%; the “% CGRP (release from rat DRG neurons after PAR-2 agonist I and capsaicin; peptide at 0.5 mg/mL)” value stood at 17.7%.

Take Ac-FFWDIV-NH2 [Ac-L-Phe-L-Phe-L-Trp-L-Asp-L-Ile-L-Val-NH2]: the “% CGRP (release from rat DRG neurons after PAR-2 agonist I and capsaicin; peptide at 25 µg/mL)” value worked out at 78.7%; the “% CGRP (release from rat DRG neurons after PAR-2 agonist I and capsaicin; peptide at 0.5 mg/mL)” value was 20.3%.

The values above are taken from patent publication US20140322307A1 (LIPOTEC S A, published 2014).
